Reference: patent US20130095480A1 (BOARD OF TRUSTEES OF THE UNIVERSITY OF ARKANSAS, published 2013)

Biological target: T1, Chondroitin Sulfate Proteoglycan 4 (CSPG4) (human, UniProt Q6UVK1 30-2322, carries chondroitin sulfate (CS) glycosaminoglycan chains)
T1 construct: whole, on cells; also called High Molecular Weight Melanoma Associated Antigen; Melanoma Chondroitin Sulfate Proteoglycan
Experiment: flow cytometry, recombinant P-selectin/Fc on M14-CSPG4 versus mock-transfected M14 cells
Description: Briefly, cells were incubated with mAb or P-selectin/Fc, washed and stained with FITC-conjugated anti-mouse IgM or anti-human IgG prior to binding detection by flow cytometry. R-phycoerythrin-conjugated polyclonal goat anti-mouse F(ab′)₂ was used as secondary for detection of anti-CSPG4 binding.

T1 sequence (Q6UVK1 30-2322): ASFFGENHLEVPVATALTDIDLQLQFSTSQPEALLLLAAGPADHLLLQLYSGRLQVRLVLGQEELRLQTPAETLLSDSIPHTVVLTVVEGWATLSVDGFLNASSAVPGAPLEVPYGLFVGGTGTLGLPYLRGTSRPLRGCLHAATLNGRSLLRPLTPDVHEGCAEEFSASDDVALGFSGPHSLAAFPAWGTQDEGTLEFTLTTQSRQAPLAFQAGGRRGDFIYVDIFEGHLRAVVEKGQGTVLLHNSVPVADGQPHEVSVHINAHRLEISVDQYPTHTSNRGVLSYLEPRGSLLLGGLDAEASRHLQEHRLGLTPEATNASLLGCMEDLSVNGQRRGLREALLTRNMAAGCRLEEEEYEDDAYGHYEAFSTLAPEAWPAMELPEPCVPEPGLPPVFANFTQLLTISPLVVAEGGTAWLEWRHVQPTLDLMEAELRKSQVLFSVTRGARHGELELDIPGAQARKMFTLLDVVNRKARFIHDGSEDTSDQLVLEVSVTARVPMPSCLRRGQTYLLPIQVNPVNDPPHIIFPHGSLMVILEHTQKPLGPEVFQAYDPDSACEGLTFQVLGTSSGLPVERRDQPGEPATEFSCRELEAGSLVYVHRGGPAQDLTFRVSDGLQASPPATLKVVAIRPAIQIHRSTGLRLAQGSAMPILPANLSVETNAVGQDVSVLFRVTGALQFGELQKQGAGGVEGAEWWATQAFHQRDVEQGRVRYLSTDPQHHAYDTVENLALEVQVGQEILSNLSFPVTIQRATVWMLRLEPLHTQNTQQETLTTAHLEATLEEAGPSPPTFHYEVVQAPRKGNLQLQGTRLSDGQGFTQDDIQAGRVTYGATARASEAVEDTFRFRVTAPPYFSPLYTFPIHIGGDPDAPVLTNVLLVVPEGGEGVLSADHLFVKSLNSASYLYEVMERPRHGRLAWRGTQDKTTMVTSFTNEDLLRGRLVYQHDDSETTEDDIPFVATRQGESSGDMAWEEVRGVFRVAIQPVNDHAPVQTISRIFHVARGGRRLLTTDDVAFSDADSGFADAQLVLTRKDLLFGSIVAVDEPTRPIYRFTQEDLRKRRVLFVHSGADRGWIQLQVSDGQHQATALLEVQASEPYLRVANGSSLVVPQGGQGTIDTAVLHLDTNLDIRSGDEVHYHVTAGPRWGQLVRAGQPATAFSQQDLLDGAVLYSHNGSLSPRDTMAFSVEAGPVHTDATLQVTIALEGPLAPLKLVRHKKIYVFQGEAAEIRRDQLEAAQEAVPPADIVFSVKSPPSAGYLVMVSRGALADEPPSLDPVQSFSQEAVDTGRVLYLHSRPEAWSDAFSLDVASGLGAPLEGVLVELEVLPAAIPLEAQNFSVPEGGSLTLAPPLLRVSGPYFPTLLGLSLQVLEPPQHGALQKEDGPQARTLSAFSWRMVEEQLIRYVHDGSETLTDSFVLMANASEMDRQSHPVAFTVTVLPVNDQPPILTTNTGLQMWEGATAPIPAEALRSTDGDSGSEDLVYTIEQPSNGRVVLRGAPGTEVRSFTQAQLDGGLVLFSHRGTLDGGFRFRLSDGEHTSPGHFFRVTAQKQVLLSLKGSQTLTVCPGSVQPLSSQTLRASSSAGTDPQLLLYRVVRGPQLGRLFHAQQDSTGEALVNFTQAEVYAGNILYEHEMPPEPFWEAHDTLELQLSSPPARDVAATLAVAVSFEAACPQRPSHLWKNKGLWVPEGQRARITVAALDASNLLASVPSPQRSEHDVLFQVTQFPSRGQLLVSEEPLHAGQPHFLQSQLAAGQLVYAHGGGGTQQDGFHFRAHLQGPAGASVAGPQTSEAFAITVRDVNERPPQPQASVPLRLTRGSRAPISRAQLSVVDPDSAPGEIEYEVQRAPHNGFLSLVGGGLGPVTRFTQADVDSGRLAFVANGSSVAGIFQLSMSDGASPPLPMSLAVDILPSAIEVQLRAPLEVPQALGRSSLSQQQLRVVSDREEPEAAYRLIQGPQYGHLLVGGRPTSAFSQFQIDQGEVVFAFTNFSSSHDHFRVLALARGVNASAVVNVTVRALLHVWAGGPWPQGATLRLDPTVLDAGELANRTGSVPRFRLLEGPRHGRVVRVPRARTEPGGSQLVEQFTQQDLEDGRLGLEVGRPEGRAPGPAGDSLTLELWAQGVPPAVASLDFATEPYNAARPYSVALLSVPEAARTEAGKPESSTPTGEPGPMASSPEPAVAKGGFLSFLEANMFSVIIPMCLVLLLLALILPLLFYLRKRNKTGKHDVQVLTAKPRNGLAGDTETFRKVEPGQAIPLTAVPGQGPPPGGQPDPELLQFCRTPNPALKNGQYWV

binding result: binds
B1: recombinant human P-selectin/Fc (human IgG) (Fc fusion, UniProt P16109 42-771, looked up)
chain: WTYHYSTKAYSWNISRKYCQNRYTDLVAIQNKNEIDYLNKVLPYYSSYYWIGIRKNNKTWTWVGTKKALTNEAENWADNEPNNKRNNEDCVEIYIKSPSAPGKWNDEHCLKKKHALCYTASCQDMSCSKQGECLETIGNYTCSCYPGFYGPECEYVRECGELELPQHVLMNCSHPLGNFSFNSQCSFHCTDGYQVNGPSKLECLASGIWTNKPPQCLAAQCPPLKIPERGNMTCLHSAKAFQHQSSCSFSCEEGFALVGPEVVQCTASGVWTAPAPVCKAVQCQHLEAPSEGTMDCVHPLTAFAYGSSCKFECQPGYRVRGLDMLRCIDSGHWSAPLPTCEAISCEPLESPVHGSMDCSPSLRAFQYDTNCSFRCAEGFMLRGADIVRCDNLGQWTAPAPVCQALQCQDLPVPNEARVNCSHPFGAFRYQSVCSFTCNEGLLLVGASVLQCLATGNWNSVPPECQAIPCTPLLSPQNGTMTCVQPLGSSSYKSTCQFICDEGYSLSGPERLDCTRSGRWTDSPPMCEAIKCPELFAPEQGSLDCSDTRGEFNVGSTCHFSCDNGFKLEGPNNVECTTSGRWSATPPTCKGIASLPTPGVQCPALTTPGQGTMYCRHHPGTFGFNTTCYFGCNAGFTLIGDSTLSCRPSGQWTAVTPACRAVKCSELHVNKPIAMNCSNLWGNFSYGSICSFHCLEGQLLNGSAQTACQENGHWSTTVPTCQAGPLTIQEA
notes: Bought reagent (R&D Systems); also called recombinant P-selectin; not shown: Fc of human IgG
